Experimental data reported in doi:10.1101/2024.05.05.592584 (bioRxiv, 2024).

Assays:
Experiment in all cases: BLI
Details in all cases: both partners purified
[1] = target: T1, SARS-CoV-2 P.1 (Gamma) NTD (SARS-CoV-2 P.1 (Gamma), strain)
T1 chain: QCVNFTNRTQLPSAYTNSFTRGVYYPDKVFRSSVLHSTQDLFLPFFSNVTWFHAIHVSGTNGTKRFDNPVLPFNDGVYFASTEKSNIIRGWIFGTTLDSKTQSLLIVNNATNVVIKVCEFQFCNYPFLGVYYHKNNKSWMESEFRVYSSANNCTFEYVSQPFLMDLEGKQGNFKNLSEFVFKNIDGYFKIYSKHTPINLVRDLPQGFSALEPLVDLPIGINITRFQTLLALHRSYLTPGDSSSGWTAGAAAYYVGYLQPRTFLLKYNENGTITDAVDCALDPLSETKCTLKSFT

SARS-CoV-2 BA.2 NTD = target: T2, SARS-CoV-2 BA.2 NTD (SARS-CoV-2 Omicron BA.2, strain)
T2 chain: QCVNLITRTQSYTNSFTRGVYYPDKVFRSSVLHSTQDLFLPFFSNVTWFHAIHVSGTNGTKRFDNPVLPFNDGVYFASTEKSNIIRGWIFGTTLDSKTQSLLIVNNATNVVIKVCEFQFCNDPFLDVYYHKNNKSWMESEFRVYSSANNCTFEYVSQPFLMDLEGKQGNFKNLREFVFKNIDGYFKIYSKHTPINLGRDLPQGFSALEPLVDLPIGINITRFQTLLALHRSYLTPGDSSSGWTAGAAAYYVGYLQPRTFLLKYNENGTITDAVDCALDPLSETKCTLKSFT

SARS-CoV-2 BA.4/BA.5 NTD = target: T3, SARS-CoV-2 BA.4/BA.5 NTD (SARS-CoV-2 Omicron BA.4/BA.5, strain)
T3 chain: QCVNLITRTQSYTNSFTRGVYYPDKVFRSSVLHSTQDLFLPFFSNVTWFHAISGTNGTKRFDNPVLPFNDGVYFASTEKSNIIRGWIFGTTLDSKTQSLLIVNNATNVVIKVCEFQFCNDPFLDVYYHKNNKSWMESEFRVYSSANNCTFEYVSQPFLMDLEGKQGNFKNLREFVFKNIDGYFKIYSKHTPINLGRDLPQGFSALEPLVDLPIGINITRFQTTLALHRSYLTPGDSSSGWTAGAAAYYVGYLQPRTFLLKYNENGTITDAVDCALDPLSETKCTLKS

SARS-CoV-2 BA.2.75.2 NTD = target: T4, SARS-CoV-2 BA.2.75.2 NTD (SARS-CoV-2 Omicron BA.2.75.2, strain)
T4 chain: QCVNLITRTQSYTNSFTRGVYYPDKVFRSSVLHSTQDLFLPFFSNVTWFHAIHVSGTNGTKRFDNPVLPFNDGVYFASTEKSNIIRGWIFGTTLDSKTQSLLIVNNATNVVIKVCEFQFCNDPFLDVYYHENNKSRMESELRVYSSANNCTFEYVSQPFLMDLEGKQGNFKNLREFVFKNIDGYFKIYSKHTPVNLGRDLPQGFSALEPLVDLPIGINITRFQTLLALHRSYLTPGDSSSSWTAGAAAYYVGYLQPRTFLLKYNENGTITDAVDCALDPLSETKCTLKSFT

[2] = target: T5, SARS-CoV-2 B.1.617.2 (Delta) NTD (SARS-CoV-2 B.1.617.2 (Delta), strain)
T5 chain: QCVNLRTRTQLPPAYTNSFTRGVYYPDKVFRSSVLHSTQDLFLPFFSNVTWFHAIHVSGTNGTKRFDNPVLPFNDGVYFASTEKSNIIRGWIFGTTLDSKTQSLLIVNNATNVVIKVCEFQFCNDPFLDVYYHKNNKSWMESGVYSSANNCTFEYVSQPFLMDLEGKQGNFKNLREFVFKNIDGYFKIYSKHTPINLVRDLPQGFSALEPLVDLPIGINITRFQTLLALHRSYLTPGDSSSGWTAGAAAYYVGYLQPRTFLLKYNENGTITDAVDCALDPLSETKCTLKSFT

SARS-CoV-2 BA.1 NTD = target: T6, SARS-CoV-2 BA.1 NTD (SARS-CoV-2 Omicron BA.1, strain)
T6 chain: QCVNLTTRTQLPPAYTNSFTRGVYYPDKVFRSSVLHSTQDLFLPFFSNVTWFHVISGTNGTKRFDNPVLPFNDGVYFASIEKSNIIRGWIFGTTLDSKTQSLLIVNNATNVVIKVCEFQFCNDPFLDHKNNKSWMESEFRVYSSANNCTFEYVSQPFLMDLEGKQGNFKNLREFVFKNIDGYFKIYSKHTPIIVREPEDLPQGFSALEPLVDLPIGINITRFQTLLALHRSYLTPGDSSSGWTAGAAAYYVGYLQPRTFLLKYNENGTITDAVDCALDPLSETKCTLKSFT

SARS-CoV-2 HV.1 RBD = SARS-CoV-2 HV.1 RBD (SARS-CoV-2 Omicron HV.1, strain)
SARS-CoV-2 XBB.1.5 RBD = SARS-CoV-2 XBB.1.5 RBD (SARS-CoV-2 Omicron XBB.1.5, strain)
SARS-CoV-2 BA.4/BA.5 RBD = SARS-CoV-2 BA.4/BA.5 RBD (SARS-CoV-2 Omicron BA.4/BA.5, strain)
SARS-CoV-2 EG.5.1 RBD = SARS-CoV-2 EG.5.1 RBD (SARS-CoV-2 Omicron EG.5.1, strain)
SARS-CoV-2 XBB.1.5 NTD = target: T7, SARS-CoV-2 XBB.1.5 NTD (SARS-CoV-2 Omicron XBB.1.5, strain)
T7 chain: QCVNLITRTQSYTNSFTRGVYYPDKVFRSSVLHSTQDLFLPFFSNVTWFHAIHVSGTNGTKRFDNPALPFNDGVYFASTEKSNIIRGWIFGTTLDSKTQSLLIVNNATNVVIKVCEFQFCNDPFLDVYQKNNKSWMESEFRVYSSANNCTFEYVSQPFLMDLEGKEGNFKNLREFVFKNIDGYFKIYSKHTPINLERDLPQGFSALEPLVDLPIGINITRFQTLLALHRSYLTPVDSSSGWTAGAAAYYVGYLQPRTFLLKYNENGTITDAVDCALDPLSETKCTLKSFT

SARS-CoV-2 XBB.1.16 NTD = target: T8, SARS-CoV-2 XBB.1.16 NTD (SARS-CoV-2 Omicron XBB.1.16, strain)
T8 chain: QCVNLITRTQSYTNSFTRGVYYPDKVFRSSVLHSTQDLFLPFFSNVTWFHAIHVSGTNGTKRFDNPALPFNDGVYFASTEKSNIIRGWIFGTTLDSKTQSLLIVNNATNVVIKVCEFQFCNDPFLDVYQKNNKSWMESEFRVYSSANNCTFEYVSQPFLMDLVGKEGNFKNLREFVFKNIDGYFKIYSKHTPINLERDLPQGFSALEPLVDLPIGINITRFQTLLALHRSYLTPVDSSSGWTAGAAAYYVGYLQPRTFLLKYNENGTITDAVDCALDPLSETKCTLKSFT

SARS-CoV-2 EG.5.1 NTD = target: T9, SARS-CoV-2 EG.5.1 NTD (SARS-CoV-2 Omicron EG.5.1, strain)
T9 chain: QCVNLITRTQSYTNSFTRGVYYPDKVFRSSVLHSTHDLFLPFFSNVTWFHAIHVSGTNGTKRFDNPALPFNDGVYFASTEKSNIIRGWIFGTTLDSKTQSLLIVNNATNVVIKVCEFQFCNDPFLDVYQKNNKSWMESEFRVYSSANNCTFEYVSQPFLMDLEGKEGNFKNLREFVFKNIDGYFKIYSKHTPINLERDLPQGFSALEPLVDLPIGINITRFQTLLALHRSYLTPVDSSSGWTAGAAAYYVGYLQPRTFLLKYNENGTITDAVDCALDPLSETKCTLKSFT

B1: C1520 IgG (antibody, V domains shown)
VH: EVQLVESGGGLVQPGGSLRLACVASGFTFSIYEMNWVRQAPGKGLEWVSYITTSGHARYNADSVKGRFTISRDNSKNSFYLQMNSLRAEDTAIYYCARPQYHYYDTSTYHSYGFDIWGQGTMVTVSS
VL: QLVLTQSPSASASLGASVNLTCTLSSGHNSYAIAWHQQQPEKGPRYLMSLNSDGSHTKGDGIPDRFSGSSSGAERFLTISSLQSEDEADYYCQTWDTGIRVFGGGTRLTVL
notes: copies: 2 + 2
B1 showed a Kd [1] of 230 nM, a koff [1] of 0.00301 s⁻¹ and a kon [1] of 13100 M⁻¹ s⁻¹. It also gave a Kd (SARS-CoV-2 BA.2 NTD) of 14.3 nM, a koff (SARS-CoV-2 BA.2 NTD) of 0.000514 s⁻¹ and a kon (SARS-CoV-2 BA.2 NTD) of 36000 M⁻¹ s⁻¹. The Kd (SARS-CoV-2 BA.4/BA.5 NTD) was 11.4 nM, the koff (SARS-CoV-2 BA.4/BA.5 NTD) was 0.000528 s⁻¹ and the kon (SARS-CoV-2 BA.4/BA.5 NTD) was 46300 M⁻¹ s⁻¹. It also gave a Kd (SARS-CoV-2 BA.2.75.2 NTD) of 185 nM, a koff (SARS-CoV-2 BA.2.75.2 NTD) of 0.00569 s⁻¹ and a kon (SARS-CoV-2 BA.2.75.2 NTD) of 30700 M⁻¹ s⁻¹. It also gave a Kd [2] of 47 nM, a koff [2] of 0.00141 s⁻¹ and a kon [2] of 30000 M⁻¹ s⁻¹. It also gave a Kd (SARS-CoV-2 BA.1 NTD) of 118 nM, a koff (SARS-CoV-2 BA.1 NTD) of 0.00418 s⁻¹ and a kon (SARS-CoV-2 BA.1 NTD) of 35500 M⁻¹ s⁻¹.

B2: C1533 IgG (antibody, V domains shown)
VH: QVQLVQSGAEVKKPGSSVKVSCKTSGVIFSRNAFSWVRQAPGQGLEWMGRIIPFLDVTNSAQEFQGRVTLNADKSTSTVYMELSSLRSEDTAIYYCARHNGDPYDFWSGYNTWAGGLDVWGQGTTVTVSS
VL: QSVLTQPPSASGTPGQRVTISCSGSGSNIGSNAVNWYQQLPGTAPKLLIYNQNQRPSGVPDRFSGSKSGTSASLAIGGLQSEDEADYYCATWDDNLSGLVFGGGTKLTVL
notes: copies: 2 + 2
B2 was tested, and the Kd [1] was 24.9 nM, the koff [1] was 0.00107 s⁻¹ and the kon [1] was 43100 M⁻¹ s⁻¹.

B3: C952 IgG (antibody, V domains shown)
VH: EVQLVQSGAEVKKPGESLTISCKDSGNSFTIYWIGWVRQMPGKGLEWMGMIYPGDSGTRYSPSFEGQVTISADESINTAYLQWRSLKASDTAMYYCVRGIAVDWYFDLWGRGTLVTVSS
VL: QSVLTQPPSVSGAPGQRVTISCTGSSSNIGAGFDVHWYQQLPGTAPKLLIYGNNNRPSGVPDRFSGSKSATSASLAITGLQAEDEADYYCQSSDSSLSGLYVFGTGTNVIVL
notes: copies: 2 + 2
Work on B3 yielded a Kd (SARS-CoV-2 HV.1 RBD) of 939000 nM, a koff (SARS-CoV-2 HV.1 RBD) of 0.037 s⁻¹ and a kon (SARS-CoV-2 HV.1 RBD) of 39.4 M⁻¹ s⁻¹. It also gave a Kd (SARS-CoV-2 XBB.1.5 RBD) of 99.3 nM, a koff (SARS-CoV-2 XBB.1.5 RBD) of 0.0046 s⁻¹ and a kon (SARS-CoV-2 XBB.1.5 RBD) of 46300 M⁻¹ s⁻¹. For the same binder, the Kd (SARS-CoV-2 BA.4/BA.5 RBD) was 8.22 nM, the koff (SARS-CoV-2 BA.4/BA.5 RBD) was 0.00358 s⁻¹ and the kon (SARS-CoV-2 BA.4/BA.5 RBD) was 435000 M⁻¹ s⁻¹. For the same binder, the Kd (SARS-CoV-2 EG.5.1 RBD) was 180000 nM, the koff (SARS-CoV-2 EG.5.1 RBD) was 0.289 s⁻¹ and the kon (SARS-CoV-2 EG.5.1 RBD) was 1600 M⁻¹ s⁻¹.

B4: C1596 IgG (antibody, V domains shown)
VH: QVQLVQSGAEVKKPGSSVKVSCKASGGTFINYAVTWVRQAPGQGLEWMGGIIPILGIPNYAQKFQGRVTITADKSTSTAYMELSSLRSEDTAVYYCARVPQAGAAQGHYYYYYGMDVWGQGTTVTVSS
VL: not shown
notes: copies: 2 + 2
B4 gave a Kd (SARS-CoV-2 XBB.1.5 NTD) of 529 nM, a Kd [1] of 282 nM and a Kd (SARS-CoV-2 XBB.1.16 NTD) of 591 nM. For the same binder, the Kd (SARS-CoV-2 BA.2 NTD) was 685 nM, the Kd (SARS-CoV-2 BA.4/BA.5 NTD) was 674 nM and the Kd (SARS-CoV-2 BA.2.75.2 NTD) was 607 nM. For the same binder, the Kd [2] was 124 nM, the Kd (SARS-CoV-2 EG.5.1 NTD) was 410 nM and the Kd (SARS-CoV-2 BA.1 NTD) was 88.2 nM.
